# Measured values from paper PMC7373187.
# Columns and labels:
# [1] = target: His6-GapR_(1–69), truncated GapR lacking the entire helix H3 (C. crescentus); experiment: SEC; Superdex 75 10/300 GL, 1 M NaCl and 1 mM EDTA, proteins separated from copurified DNA; His6-GapR1-89 at 50 μM, His6-GapR1-69 at 125 μM, His6-GapR1-76 at 100 μM (monomer)
# [2] = target: His6-GapR_(1–69), truncated GapR lacking the entire helix H3 (C. crescentus); experiment: cross-linking; 400 mM EDC plus 100 mM NHS, 2 h, room temperature; proteins at 50 μM (monomer); 1 M NaCl and 1 mM EDTA (no DNA bound); SDS-PAGE, silver stained
# [3] = target: untagged GapR_(1–89) (C. crescentus); experiment: cross-linking; 400 mM EDC plus 100 mM NHS, 2 h, room temperature; proteins at 50 μM (monomer); 150 mM NaCl, 10% glycerol, 20 mM HEPES (for tagged and untagged GapR1-89 also 50 mM sodium phosphate); SDS-PAGE, silver stained
# [4] = target: His6-GapR_(1–76), truncated GapR lacking the hydrophobic patch of helix H3 (C. crescentus); experiment: SEC; Superdex 75 10/300 GL, 1 M NaCl and 1 mM EDTA, proteins separated from copurified DNA; His6-GapR1-89 at 50 μM, His6-GapR1-69 at 125 μM, His6-GapR1-76 at 100 μM (monomer)
# [5] = target: His6-GapR_(1–76), truncated GapR lacking the hydrophobic patch of helix H3 (C. crescentus); experiment: cross-linking; 400 mM EDC plus 100 mM NHS, 2 h, room temperature; proteins at 50 μM (monomer); 1 M NaCl and 1 mM EDTA (no DNA bound); SDS-PAGE, silver stained
# [6] = target: His6-GapR_(1–89), full-length wild-type GapR of Caulobacter crescentus (C. crescentus); experiment: SEC; Superdex 75 10/300 GL, 1 M NaCl and 1 mM EDTA, proteins separated from copurified DNA; His6-GapR1-89 at 50 μM, His6-GapR1-69 at 125 μM, His6-GapR1-76 at 100 μM (monomer)
# [7] = target: His6-GapR_(1–89), full-length wild-type GapR of Caulobacter crescentus (C. crescentus); experiment: cross-linking; 400 mM EDC plus 100 mM NHS, 2 h, room temperature; proteins at 50 μM (monomer); 1 M NaCl and 1 mM EDTA (no DNA bound); SDS-PAGE, silver stained
# [8] = target: His6-GapR_(1–89), full-length wild-type GapR of Caulobacter crescentus (C. crescentus); experiment: cross-linking; 400 mM EDC plus 100 mM NHS, 2 h, room temperature; proteins at 50 μM (monomer); 150 mM NaCl, 10% glycerol, 20 mM HEPES (for tagged and untagged GapR1-89 also 50 mM sodium phosphate); SDS-PAGE, silver stained
substance,measurement,setting,value
"His6-GapR_(1–69), truncated GapR lacking the entire helix H3 (domain or fragment)",stoichiometry N,[1],2
same,stoichiometry N,[2],2
untagged GapR_(1–89) (natural protein),stoichiometry N,[3],4
"His6-GapR_(1–76), truncated GapR lacking the hydrophobic patch of helix H3 (domain or fragment)",stoichiometry N,[4],2
same,stoichiometry N,[5],2
"His6-GapR_(1–89), full-length wild-type GapR of Caulobacter crescentus (natural protein)",stoichiometry N,[6],4
same,stoichiometry N,[7],4
same,stoichiometry N,[8],4
